Patent US20160017024A1 (Five Prime, published 2016)

What was measured:
[1] = target: full length human LTK with an HA tag at the C-terminus, expressed on transfected cells (human, UniProt P29376 17-864); experiment: cell-based or functional assay
Mouse LTK ECD-Fc = target: T1, Mouse LTK ECD-Fc (mouse); experiment: SPR (Biacore T100), ECD-Fc captured on Protein A CM4 chip
T1 construct: also called mouse LTK ECD-Fc (human Fc)
Method: The kₐ, kd, and KD for binding of human FAM150A to human LTK ECD-Fc (SEQ ID NO: 23) and mouse LTK ECD-Fc (SEQ ID NO: 25) was determined as follows. Binding kinetics of FAM150A to human and mouse LTK ECD-Fc fusion proteins was determined using Biacore T100 SPR (GE Healthcare Life Sciences, Piscataway, N.J.). LTK ECD-Fc fusions were captured on a CM4 sensor chip immobilized with Protein A (Thermo Scientific, Rockford, Ill.). HBS-P (GE Healthcare Life Sciences, Piscataway, N.J.) was used as the running and dilution buffer. Capture levels of the ECD-Fc fusions were adjusted to approximately 300-500RU so that binding values would be greater than the levels of non-specific binding to the reference flow cell. FAM150A was injected at […] (100 nM, 33.3 nM, 11.1 nM, 3.7 nM, 1.2 nM, 0.41 nM, 0.13 nM, 0.046 nM and 0 nM) for 120 seconds. The association constant, dissociation constant, and affinity of FAM150A for LTK Fc-ECD fusions was calculated using the Biacore T100 Evaluation software package using the 1:1 binding model.

Sequence of full length human LTK with an HA tag at the C-terminus, expressed on transfected cells (P29376 17-864): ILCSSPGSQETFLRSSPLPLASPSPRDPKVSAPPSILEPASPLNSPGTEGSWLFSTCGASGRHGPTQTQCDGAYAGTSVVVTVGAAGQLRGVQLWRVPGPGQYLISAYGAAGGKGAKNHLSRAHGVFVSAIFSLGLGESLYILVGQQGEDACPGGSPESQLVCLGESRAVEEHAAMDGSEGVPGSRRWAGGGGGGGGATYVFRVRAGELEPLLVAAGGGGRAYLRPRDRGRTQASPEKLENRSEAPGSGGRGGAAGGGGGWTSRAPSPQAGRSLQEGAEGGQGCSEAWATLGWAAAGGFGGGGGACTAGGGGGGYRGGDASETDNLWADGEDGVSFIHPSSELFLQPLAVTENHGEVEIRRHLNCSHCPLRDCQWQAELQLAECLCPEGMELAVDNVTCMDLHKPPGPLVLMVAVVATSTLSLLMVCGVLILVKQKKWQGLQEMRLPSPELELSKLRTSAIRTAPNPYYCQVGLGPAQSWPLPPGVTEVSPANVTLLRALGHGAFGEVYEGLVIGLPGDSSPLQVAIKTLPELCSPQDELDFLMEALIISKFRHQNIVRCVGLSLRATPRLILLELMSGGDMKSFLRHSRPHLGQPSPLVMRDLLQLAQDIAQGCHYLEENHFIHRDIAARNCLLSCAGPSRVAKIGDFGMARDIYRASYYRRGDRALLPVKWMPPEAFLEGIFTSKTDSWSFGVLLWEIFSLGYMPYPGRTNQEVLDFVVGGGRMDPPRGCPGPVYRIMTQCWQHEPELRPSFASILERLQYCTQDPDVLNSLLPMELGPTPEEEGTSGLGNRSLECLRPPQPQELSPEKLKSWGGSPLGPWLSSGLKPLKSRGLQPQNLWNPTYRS
T1 sequence (chain, as listed by the source limits assumed): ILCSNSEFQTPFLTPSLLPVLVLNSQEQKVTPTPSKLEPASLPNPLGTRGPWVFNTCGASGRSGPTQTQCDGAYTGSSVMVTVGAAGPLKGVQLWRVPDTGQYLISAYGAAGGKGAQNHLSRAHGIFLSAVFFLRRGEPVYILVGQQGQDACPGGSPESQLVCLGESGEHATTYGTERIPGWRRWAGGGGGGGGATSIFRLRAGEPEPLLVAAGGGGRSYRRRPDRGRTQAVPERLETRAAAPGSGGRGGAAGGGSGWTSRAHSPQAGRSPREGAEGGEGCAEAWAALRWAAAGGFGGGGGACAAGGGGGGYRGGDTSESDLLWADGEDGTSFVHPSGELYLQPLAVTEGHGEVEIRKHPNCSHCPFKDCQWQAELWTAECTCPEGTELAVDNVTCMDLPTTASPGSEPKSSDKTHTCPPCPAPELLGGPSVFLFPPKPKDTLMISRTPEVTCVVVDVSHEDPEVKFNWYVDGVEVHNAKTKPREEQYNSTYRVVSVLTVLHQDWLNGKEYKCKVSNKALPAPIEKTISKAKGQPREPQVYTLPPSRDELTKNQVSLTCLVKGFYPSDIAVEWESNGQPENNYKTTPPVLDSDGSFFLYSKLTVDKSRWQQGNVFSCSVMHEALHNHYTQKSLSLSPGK

Row | induction of LTK phosphorylation relative to an unrelated control protein [1] [fold] | EC50 for FAM150A-induced LTK phosphorylation [1] [nM] | fold lower affinity than to human LTK ECD-Fc (Mouse LTK ECD-Fc) [fold] | Binder
1 | > 2 |  |  | Human FAM150B (ligand) GAEPREPADGQALLRLVVELVQELRKHHSAEHKGLQLLGRDCALGRAEAAGLGPSPEQRVEIVPRDLRMKDKFLKHLTGPLYFSPKCSKHFHRLYHNTRDCTIPAYYKRCARLLTRLAVSPVCMEDKQ
2 | > 20 | 1.96 | ~30 | Human FAM150A (ligand, Expressed in HEK 293 6E cells (or HEK293T supernatant) and secreted) RPRGRRGARVTDKEPKPLLFLPAAGAGRTPSGSRSAEIFPRDSNLKDKFIKHFTGPVTFSPECSKHFHRLYYNTRECSTPAYYKRCARLLTRLAVSPLCSQT
